Assay results: patent publication US20220143148A1, “COMPOSITIONS AND METHODS FOR MODULATING CGRP SIGNALING TO REGULATE INTESTINAL INNATE LYMPHOID CELLS” (The Broad Institute, Inc., priority 2019, published 2022)

Test system: small intestinal immune cells
Experiment: Droplet-based scRNA-seq of small intestinal immune cells (LP and PP), OVA vs PBS, clustering and differential expression
Type: in vivo, mouse
Conditions: PP, cluster ID 8
Excerpt: To comprehensively characterize small intestinal immune cells, Applicants generated scRNA-Seq profiles for 58,067 immune cells collected from lamina propria (LP) and Peyer's patch (PP) regions at steady state and after induction of a type 2 inflammatory reaction to ovalbumin (OVA) (Brandt et al., 2003) (FIGS. 1A and 8A). To ensure sufficient representation of rare cells, Applicants combined a normalization strategy—removing by flow sorting either a portion of IgD+ naïve B cells, which are the most abundant cell type in PPs, or all CD19+ and CD3+ T cells (FIG. 8B, Methods)—with profiling of a sufficiently large number of cells number (P>0.99 to recover at least 15 cells from each cluster, Methods) by massively parallel scRNA-seq (Haber et al., 2017) (Methods). Applicants obtained 36,797 and 21,270 high quality cells passing initial filtering (Methods) from PP and LP regions, respectively.
Overall, Applicants annotated 27 cell subsets across the two compartments, spanning T cells, B cells, ILCs, dendritic cells (DCs), myeloid cells and stromal cells, in frequencies ranging from 0.07% to 14%. Briefly, Applicants first partitioned the cells from the PP regions by unsupervised clustering (Methods) into 46 clusters, retained the 97% of cells that were robustly assigned cell identities in each cluster (Methods), assigned the cells from the LP regions to the 46 clusters using a classifier (Methods), and visualized the data with scvis (Ding et al., 2018), a deep generative model-based method (FIGS. 1B and 8C, Methods). Next, Applicants identified genes that were differentially expressed between the cells in each cluster and the remaining cells (Table 1, Methods), as well as between pairs of clusters (Table 2), to elucidate identities of similar cell types/states. Applicants excluded from downstream analysis clusters mostly consisting of contaminants from epithelium, likely doublets, or cells with a small number of Unique Molecular Identifiers (UMIs) (FIGS. 1C and 8D), or lacking distinct markers (Methods). Altogether, Applicants retained 27 clusters spanning 85% of the cells and each associated with distinct marker genes (FIG. 8E, Methods).
To induce allergic reaction to OVA, 6 to 7 weeks old mice were sensitized twice, two weeks apart, with 50 μg of OVA plus 1 mg of aluminum potassium sulfate adjuvant via intraperitoneal injection. Two weeks later, mice were orally administered with 50 mg of OVA on every other day for a total of five times. 1 μg of α-CGRP peptide was administered simultaneously when indicated. Mice were deprived of food for 3-4 hours in cages with wood chip bedding for limiting antigen degradation in the stomach before each intragastric challenge.
Isolation of cells from Peyer's patches (PPs). Peyer's patches (PPs) were carefully dissected from the small intestine under a stereo microscope using a fine scissor, pierced once with a fine forcep. Tissues were digested in freshly made digestion buffer (RPMI-1640 containing 100 μg/ml Liberase™ and 50 μg/ml DNase I at 37° C. on a roto-mixer. After 15 min, tissues were very gently mixed using a 1 ml pipette. The supernatant was collected and added to ice-cold MACS buffer (pH 7.4; PBS plus 2% FCS and 2 mM EDTA). Pre-warmed (37° C.) fresh digestion buffer was added to the remaining tissues. After rotation at 37° C. for 15 min, the mixture was vigorously mixed using a 1 ml pipette for 1 min. Supernatants from the two steps were combined and passed through 70 μm filters and stained for FACS (below).
Isolation of cells from the lamina propria (LP). The small intestines were opened longitudinally and washed in ice-cold PBS. For scRNA-seq, roughly 0.5 cm of fragments from each of the distal, middle and proximal regions without visible PPs were collected. Epithelial cells were dissociated by tissue rotation in pre-warmed (37° C.) PBS containing 10 mM EDTA at 37° C. for 15 min, followed by additional incubation on ice for 15 min. Tissues were then shaken vigorously. […]

B1: OVA (protein, UniProt P01012 2-386, looked up)
Ovalbumin: GSIGAASMEFCFDVFKELKVHHANENIFYCPIAIMSALAMVYLGAKDSTRTQINKVVRFDKLPGFGDSIEAQCGTSVNVHSSLRDILNQITKPNDVYSFSLASRLYAEERYPILPEYLQCVKELYRGGLEPINFQTAADQARELINSWVESQTNGIIRNVLQPSSVDSQTAMVLVNAIVFKGLWEKAFKDEDTQAMPFRVTEQESKPVQMMYQIGLFRVASMASEKMKILELPFASGTMSMLVLLPDEVSGLEQLESIINFEKLTEWTSSNVMEERKIKVYLPRMKMEEKYNLTSVLMAMGITDVFSSSANLSGISSAESLKISQAVHAAHAEINEAGREVVGSAEAGVDAASVSEEFRADHPFLFCIKHIATNAVLFFGRCVSP
  Rab35 percentage of expressing cells in OVA-treated group: 0.207
  Rac2 percentage of expressing cells in OVA-treated group: 0.97
  Rel percentage of expressing cells in OVA-treated group: 0.139
  Rgs1 percentage of expressing cells in OVA-treated group: 0.699
  Rnf125 percentage of expressing cells in OVA-treated group: 0.167
  Rnf157 percentage of expressing cells in OVA-treated group: 0.188
  Rora percentage of expressing cells in OVA-treated group: 0.161
  Rrad percentage of expressing cells in OVA-treated group: 0.191
  Rsrp1 percentage of expressing cells in OVA-treated group: 0.559
  Samd9l percentage of expressing cells in OVA-treated group: 0.176
  Samsn1 percentage of expressing cells in OVA-treated group: 0.324
  Sh2d1a percentage of expressing cells in OVA-treated group: 0.488
  Sik1 percentage of expressing cells in OVA-treated group: 0.161
  Skil percentage of expressing cells in OVA-treated group: 0.207
  Sla percentage of expressing cells in OVA-treated group: 0.335
  Slfn2 percentage of expressing cells in OVA-treated group: 0.408
  Sp100 percentage of expressing cells in OVA-treated group: 0.537
  Taf10 percentage of expressing cells in OVA-treated group: 0.347
  Tfam percentage of expressing cells in OVA-treated group: 0.19
  Tgif1 percentage of expressing cells in OVA-treated group: 0.305
  Tm6sf1 percentage of expressing cells in OVA-treated group: 0.454
  Traf1 percentage of expressing cells in OVA-treated group: 0.464
  Tsc22d3 percentage of expressing cells in OVA-treated group: 0.664
  Tuba4a percentage of expressing cells in OVA-treated group: 0.191
  Txndc5 percentage of expressing cells in OVA-treated group: 0.239
  Txnip percentage of expressing cells in OVA-treated group: 0.398
  Ube2s percentage of expressing cells in OVA-treated group: 0.478
  VgIl4 percentage of expressing cells in OVA-treated group: 0.47
  Vps37b percentage of expressing cells in OVA-treated group: 0.79
  Zc3h12a percentage of expressing cells in OVA-treated group: 0.182
  Zfp36l2 percentage of expressing cells in OVA-treated group: 0.84
  Zfp512 percentage of expressing cells in OVA-treated group: 0.446
OVA vs PBS
  AW112010 LN (average fold change): 0.208
  AY036118 LN (average fold change): −0.339
  Actr3 LN (average fold change): 0.315
  Alyref LN (average fold change): −0.597
  Amd1 LN (average fold change): −0.426
  Arf4 LN (average fold change): −0.186
  Arfrp1 LN (average fold change): 0.609
  Arl6ip1 LN (average fold change): 0.367
  Arl6ip5 LN (average fold change): 0.344
  Arpc5l LN (average fold change): 0.383
  Arrb2 LN (average fold change): 0.295
  Ash1l LN (average fold change): 0.491
  B2m LN (average fold change): 0.159
  Bcl2 LN (average fold change): 0.286
  Bcl2a1b LN (average fold change): −0.507
  Bcl2l11 LN (average fold change): −0.208
  Bhlhe40 LN (average fold change): −0.159
  Cap1 LN (average fold change): 0.235
  Ccr2 LN (average fold change): 0.330
  Cd47 LN (average fold change): 0.262
  Cd69 LN (average fold change): −0.386
  Cd74 LN (average fold change): −0.187
  Cdk2ap1 LN (average fold change): −0.673
  Cdkn1a LN (average fold change): −0.980
  Cdv3 LN (average fold change): −0.281
  Cks2 LN (average fold change): −0.601
  Clec2d LN (average fold change): 0.391
  Coq10b LN (average fold change): −0.426
  Crem LN (average fold change): −0.681
  Csrp1 LN (average fold change): −0.437
  Ctla2a LN (average fold change): 0.372
  Cxcr4 LN (average fold change): 0.544
  Ddx21 LN (average fold change): −0.379
  Defa24 LN (average fold change): −0.967
  Dgat1 LN (average fold change): −0.352
  Dusp1 LN (average fold change): −0.244
  Eef2 LN (average fold change): 0.257
  Egr1 LN (average fold change): −0.640
  Eif4a2 LN (average fold change): 0.300
  Emb LN (average fold change): −0.223
  Fam105a LN (average fold change): 0.376
  Fasl LN (average fold change): 0.296
  Fcer1g LN (average fold change): 0.170
